The text below walks through data of paper PMC4446440, “Structural and functional analysis reveals that human OASL binds dsRNA to enhance RIG-I signaling” (Nucleic Acids Research, 2015).

Data set [1] concerns the molecule itself. Kind of data set: SEC; analytical, Superdex 200 PC3.2/30; OASL run in 50 mM Tris-HCl pH 9, 500 mM NaCl, 10% glycerol, 1.5 mM MgCl2, 1 M urea, 1 mM BME; calibrated with Blue Dextran and albumin.
In data set [2] the target is T1, OLD (OAS-like domain of OASL) wild type (Homo sapiens, UniProt Q15646 1-350).
T1 sequence: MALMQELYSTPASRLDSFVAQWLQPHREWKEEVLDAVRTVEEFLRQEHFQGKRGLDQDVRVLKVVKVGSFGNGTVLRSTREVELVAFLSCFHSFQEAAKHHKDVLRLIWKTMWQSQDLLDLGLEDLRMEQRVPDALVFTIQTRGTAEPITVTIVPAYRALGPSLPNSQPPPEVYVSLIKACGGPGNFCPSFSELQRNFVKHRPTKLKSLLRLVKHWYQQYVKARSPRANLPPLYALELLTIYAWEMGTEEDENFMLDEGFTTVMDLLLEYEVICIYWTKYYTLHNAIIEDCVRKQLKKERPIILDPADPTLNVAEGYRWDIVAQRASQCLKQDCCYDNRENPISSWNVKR
Kind of data set: EMSA; OLD 2.4 uM, dsRNA 0-8.6 uM, protein stained; 1.5 mM Mg2+; 100 mM DL-malic acid pH 5.9, 200 (unit not given) Na2SO4, 300 mM NaCl, 1.5 mM MgCl2, 2 mM BME, 5% glycerol; 37 C 15 min; native PAGE in 0.5x TBE. The conditions noted are these: protein: recombinant; tags: C-terminal 6xHis; blunt. (A gel shift assay detects complexes by their altered migration in electrophoresis.)

B1: full-length OASL (human 2'-5' oligoadenylate synthetase-like protein), recombinant from insect cells (natural protein, UniProt Q15646 1-514, looked up)
chain: MALMQELYSTPASRLDSFVAQWLQPHREWKEEVLDAVRTVEEFLRQEHFQGKRGLDQDVRVLKVVKVGSFGNGTVLRSTREVELVAFLSCFHSFQEAAKHHKDVLRLIWKTMWQSQDLLDLGLEDLRMEQRVPDALVFTIQTRGTAEPITVTIVPAYRALGPSLPNSQPPPEVYVSLIKACGGPGNFCPSFSELQRNFVKHRPTKLKSLLRLVKHWYQQYVKARSPRANLPPLYALELLTIYAWEMGTEEDENFMLDEGFTTVMDLLLEYEVICIYWTKYYTLHNAIIEDCVRKQLKKERPIILDPADPTLNVAEGYRWDIVAQRASQCLKQDCCYDNRENPISSWNVKRARDIHLTVEQRGYPDFNLIVNPYEPIRKVKEKIRRTRGYSGLQRLSFQVPGSERQLLSSRCSLAKYGIFSHTHIYLLETIPSEIQVFVKNPDGGSYAYAINPNSFILGLKQQIEDQQGLPKKQQQLEFQGQVLQDWLGLGIYGIQDSDTLILSKKKGEALFPAS
notes: human OASL, full length (printed as 61 kDa); OAS-like domain (residues 1-350) followed by two ubiquitin-like domains; also called OAS-like protein
In the case of B1, the binding result in data set [1] is on record as “binds”.

B2: 18 bp dsRNA (dsRNA)
RNA 1: GGCUUUUGACCUUUAUGC
RNA 2: GCAUAAAGGUCAAAAGCC
Turning to B2, the binding result in data set [2] is “binds”.
